Assay results taken from PMC11966780.

Experiments:
Test in all cases: label-free LC-MS/MS
[1] = target: AAV-DJ capsid incorporating VP3 with the ALFAnb inserted at position H631 (AAV-DJ | not stated)
[2] = target: AAV-DJ capsid incorporating VP1 with a GFPnb inserted at position H631 (AAV-DJ | not stated)
[3] = target: AAV-DJ capsid incorporating VP3 with a GFPnb inserted at position H631 (AAV-DJ | not stated)

Substance	GFP/capsid (GFP-NLS-ALFA proteins per capsid) [1]	GFP/capsid, Rep1 [1]	GFP/capsid, Rep3 [1]	GFP/capsid, avg [1]	GFP/capsid (GFP-NLS per capsid) [2]	GFP/capsid, Rep1 [2]	GFP/capsid, Rep2 [2]	GFP/capsid, Rep3 [2]	GFP/capsid, avg [2]	GFP/capsid (GFP-NLS per capsid) [3]	GFP/capsid, Rep1 [3]	GFP/capsid, Rep2 [3]	GFP/capsid, Rep3 [3]
GFP C-terminally tagged with a c-Myc NLS followed by the ALFA tag	1 to 9	8.63 GFP/capsid	0.3 GFP/capsid	3.35 GFP/capsid									
GFP tagged with a c-Myc NLS at the C-terminus					1 to 3	0.89 GFP/capsid	2.27 GFP/capsid	0.81 GFP/capsid	1.33 GFP/capsid	3 to 15	13.1 GFP/capsid	2.17 GFP/capsid	1.35 GFP/capsid
green fluorescent protein (GFP) (from UniProt P42212 1-238) (natural protein)						0.89 GFP/capsid	0.73 GFP/capsid	0.33 GFP/capsid	0.65 GFP/capsid				
